Tests used:
HA of H3N2 A/HK/1/68 [1] = target: T1, HA of H3N2 A/HK/1/68 (influenza A virus, UniProt Q91MA7 17-530); test: BLI steady state
[2] = target: HA of H7N7 A/Common Teal/MPF139/07 (influenza A virus); test: cell-based or functional assay
HA of H7N9 A/Anhui/1/13 = HA of H7N9 A/Anhui/1/13 (influenza A virus); test: cell-based or functional assay
[3] = target: HA of H7N9 A/Shanghai/1/13 (influenza A virus); test: cell-based or functional assay
[4] = target: HA of H7N9 A/Shanghai/2/13 (influenza A virus); test: cell-based or functional assay
[5] = target: HA of H10N8 A/Jiangxi/346/2013 (influenza A virus); test: cell-based or functional assay
[6] = target: HA of H10N3 A/Common Teal/MPH11/08 (influenza A virus); test: cell-based or functional assay
[7] = target: HA of H10N9 A/Northern Shoveler/MPE2531/08 (influenza A virus); test: cell-based or functional assay
[8] = target: HA of B/Florida/04/2006 (Yamagata) (influenza B virus); test: cell-based or functional assay
HA of H3N2 A/HK/1/68 [9] = target: T1, HA of H3N2 A/HK/1/68; test: cell-based or functional assay
[10] = target: T2, HA of H7N7 A/Netherlands/219/2003 (influenza A virus, UniProt P36346 19-563); test: cell-based or functional assay
[11] = target: HA of H2N2 A/Guiyang/1/57 (influenza A virus); test: cell-based or functional assay
[12] = target: HA of H2N2 A/WF/HK/MPU3156/05 (influenza A virus); test: cell-based or functional assay
[13] = target: HA of H4 A/WF/HK/MPA892/06 (influenza A virus); test: cell-based or functional assay
HA of H7N7 A/PR8 H7N7-NY = HA of H7N7 A/PR8 H7N7-NY (influenza A virus); test: cell-based or functional assay
[14] = target: HA of H10N7 A/Chick/Germany/N/49 (influenza A virus); test: cell-based or functional assay
[15] = target: HA of H1N1 A/Mississippi/03/01 274H (influenza A virus); test: cell-based or functional assay
[16] = target: HA of H1N1 A/Solomon Islands/3/2006 (IVR 145) (influenza A virus); test: cell-based or functional assay
HA of H1N1 A/WSN/33 = HA of H1N1 A/WSN/33 (influenza A virus, UniProt P03454 18-565); test: cell-based or functional assay
HA of H1N1 A/HK/54/98 = HA of H1N1 A/HK/54/98 (influenza A virus); test: cell-based or functional assay
[17] = target: HA of H1N1 A/Christchurch/16/10 (influenza A virus); test: cell-based or functional assay
[18] = target: HA of H1N2 A/Env/HK/MPU3156/05 (influenza A virus); test: cell-based or functional assay
[19] = target: HA of H5N1 A/Indonesia/5/05 (influenza A virus); test: cell-based or functional assay
[20] = target: HA of H5N2 A/Eurasian Wigeon/MPF461/07 (influenza A virus); test: cell-based or functional assay
[21] = target: HA of H5N2 A/Eurasian Wigeon/HK/MPF333/07 (influenza A virus); test: cell-based or functional assay
[22] = target: HA of H2N2 A/AnnArbor/23/57 (influenza A virus); test: cell-based or functional assay
[23] = target: HA of H2N2 A/Env/HK/MPU3156/05 (influenza A virus); test: cell-based or functional assay
[24] = target: HA of H6N1 A/Eurasian Wigeon/MPG1884/09 (influenza A virus); test: cell-based or functional assay
[25] = target: HA of H6N1 A/Taiwan/2/2013 (influenza A virus); test: cell-based or functional assay
[26] = target: HA of H6N8 A/Eurasian Wigeon/MPD411/07 (influenza A virus); test: cell-based or functional assay
[27] = target: HA of H11N9 A/Northern Pintail/MPC2085/07 (influenza A virus); test: cell-based or functional assay
[28] = target: HA of H9N2 A/Ck/HK/SSP176/09 (influenza A virus); test: cell-based or functional assay
[29] = target: HA of H9N2 A/Great Cormorant/MP2934/04 (influenza A virus); test: cell-based or functional assay
[30] = target: HA of H9N2 A/HK/466419/09 (influenza A virus); test: cell-based or functional assay
[31] = target: HA of H8N4 A/Eurasian Wigeon/MPH571/08 (influenza A virus); test: cell-based or functional assay
[32] = target: HA of H8N2 A/Env/MPJ1258/09 (influenza A virus); test: cell-based or functional assay
[33] = target: HA of H12N5 A/Env/MPK659/09 (influenza A virus); test: cell-based or functional assay
HA of H3N2 A/Fukui/45/04 = HA of H3N2 A/Fukui/45/04 (influenza A virus); test: cell-based or functional assay
HA of H3N2 A/Aichi/2/68 = HA of H3N2 A/Aichi/2/68 (influenza A virus, UniProt P03437 17-566); test: cell-based or functional assay
[34] = target: HA of H3N2 A/Johannesburg/33/94 (influenza A virus); test: cell-based or functional assay
HA of H3N2 A/Perth/16/09 = HA of H3N2 A/Perth/16/09 (influenza A virus); test: cell-based or functional assay
[35] = target: HA of H3N2 A/Victoria/210/09 (influenza A virus); test: cell-based or functional assay
[36] = target: HA of H4N1 A/Northern Pintail/MPB1368/06 (influenza A virus); test: cell-based or functional assay
[37] = target: HA of H4N6 A/Great Cormorant/MPB1683/06 (influenza A virus); test: cell-based or functional assay
[38] = target: HA of H14N5 A/Mallard/Astrakhan/263/1982 (influenza A virus); test: cell-based or functional assay
[39] = target: HA of H7N7 A/Northern Shoveler/MPF518/08 (influenza A virus); test: cell-based or functional assay
[40] = target: T2, HA of H7N7 A/Netherlands/219/2003; test: AlphaLISA competition vs CR9114
[41] = target: HA of B/Malaysia/2506/04 (Victoria) (influenza B virus); test: cell-based or functional assay
[42] = target: HA of B/Harbin/7/94 (Yamagata) (influenza B virus); test: cell-based or functional assay
[43] = target: HA of B/Massachusetts/02/12 (Yamagata) (influenza B virus); test: cell-based or functional assay
HA of B/Lee/40 = HA of B/Lee/40 (influenza B virus, UniProt P03460 16-552); test: cell-based or functional assay
[44] = target: HA of B/Harbin/7/94 (Yamagata) (influenza B virus); test: cell-based or functional assay; remark: listed apart in the source
[45] = target: HA of H5N1 A/Vietnam/1194/04 (influenza A virus); test: cell-based or functional assay

B1: SD1038 (VHH)
VHH: EVQLVESGGGLVQPGGSLRLSCAVSISIFDIYAMDWYRQAPGKQRDLVATSFRDGSTNYADSVKGRFTISRDNAKNTLYLQMNSLKPEDTAVYLCHVSLYRDPLGVAGGMGVYWGKGALVTVSS
notes: llama sdAb
HA of H3N2 A/HK/1/68 [1]
  Kd: 44 nM
[2]
  VNA titer: 359 nM
HA of H7N9 A/Anhui/1/13
  VNA titer: 253 nM
[3]
  VNA titer: 503 nM
[4]
  VNA titer: 239 nM
[5]
  VNA titer: 239 nM
[6]
  VNA titer: 301 nM
[7]
  VNA titer: 327 nM
[8]
  VNA titer: > 1000 nM
HA of H3N2 A/HK/1/68 [9]
  VNA titer: 40.2 nM
[10]
  VNA titer: 181 nM
[11]
  VNA titer: 102 nM
[12]
  VNA titer: 31.4 nM
[13]
  VNA titer: > 1000 nM
HA of H7N7 A/PR8 H7N7-NY
  VNA titer: 80.6 nM
[14]
  VNA titer: 469 nM
[15]
  VNA titer: 4.7 nM
[16]
  VNA titer: 4.1 nM
HA of H1N1 A/WSN/33
  VNA titer: 5 nM
HA of H1N1 A/HK/54/98
  VNA titer: 16.5 nM
[17]
  VNA titer: 2.6 nM
[18]
  VNA titer: 40.5 nM
[19]
  VNA titer: 32.8 nM
[20]
  VNA titer: 18.8 nM
[21]
  VNA titer: 11 nM
[22]
  VNA titer: 33 nM
[23]
  VNA titer: 23.2 nM
[24]
  VNA titer: 16.2 nM
[25]
  VNA titer: 15.3 nM
[26]
  VNA titer: 13.2 nM
[27]
  VNA titer: 160 nM
[28]
  VNA titer: 90.8 nM
[29]
  VNA titer: 105 nM
[30]
  VNA titer: 700 nM
[31]
  VNA titer: 53.4 nM
[32]
  VNA titer: 58.7 nM
[33]
  VNA titer: > 1000 nM
HA of H3N2 A/Fukui/45/04
  VNA titer: 632 nM
HA of H3N2 A/Aichi/2/68
  VNA titer: 127 nM
[34]
  VNA titer: 443 nM
HA of H3N2 A/Perth/16/09
  VNA titer: 253 nM
[35]
  VNA titer: 253 nM
[36]
  VNA titer: 485 nM
[37]
  VNA titer: 275 nM
[38]
  VNA titer: 253 nM
[39]
  VNA titer: 441 nM
[40]
  pIC50: 7.5

B2: SD1084 (VHH)
VHH: EVQLVESGGGLVQPGGSLKLSCAASGFTFSTSWMYWLRQAPGKGLEWVSVINTDGGTYYADSVKDRFTISRDNAKDTLYLQMSSLKSEDTAVYYCAKDWGGPEPTRGQGTQVTVSS
[41]
  VNA titer: 34.9 nM
[42]
  VNA titer: 240 nM
[43]
  VNA titer: 40 nM
HA of B/Lee/40
  VNA titer: > 1000 nM
[44]
  hemagglutination inhibition titer: 1.1 µg/mL
[45]
  hemagglutination inhibition titer: > 50 µg/mL

— patent US20190359693A1 (Janssen / Centocor, published 2019)
